Measurements as given in patent US20210032351A1 (XDCEXPLORER SHANGHAI, published 2021).

B1: Murine anti-75G7 (antibody, V domains shown)
VH: EVQLQQSGPELVKPGASVKIPCKASGYTFTDYNMDWVKQSHGKSLEWIGDINPNNGDTIYNQKFKGKATLTVDKSSSTAYMELRSLTSEDTAVYYCARGDYDGYYPVYYAMDYWGQGTSVTVSS
VL: ENVLTQSPAIMSASPGEKVTMTCRASSSVSSSYLHWYQQKSGASPKLWIFSTSNLAAGVPARFSGSGSGTSYSLTVSSVEAEDAATYYCQQYSGYPLTFGAGTKLELK
notes: murine hybridoma antibody; also called 75G7C6
B2: Chimeric antibody 75G7 (antibody, human IgG1, V domains shown)
VH: EVQLQQSGPELVKPGASVKIPCKASGYTFTDYNMDWVKQSHGKSLEWIGDINPNNGDTIYNQKFKGKATLTVDKSSSTAYMELRSLTSEDTAVYYCARGDYDGYYPVYYAMDYWGQGTSVTVSS
VL: ENVLTQSPAIMSASPGEKVTMTCRASSSVSSSYLHWYQQKSGASPKLWIFSTSNLAAGVPARFSGSGSGTSYSLTVSSVEAEDAATYYCQQYSGYPLTFGAGTKLELK
notes: also called c75G7C6; chimeric antibody c75G7C6

Experiments:
[1] = target: T1, human EGFRvIII-hFc protein (human, UniProt P00533 25-645); assay: ELISA, coated EGFRvIII-hFc, antibody 100 nM
T1 construct: extracellular domain; made in HEK293 cells, purified on protein A; also called immunogen A; hFc-tagged EGFRvIII protein; not shown: human IgG Fc fragment (hFc) of the pCpC vector
Outline: (§1)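 EGFRvIII-hFc coated at 1.0 μg/mL in PBS overnight at 4° C, blocked with PBS/0.01% Tween20/1% BSA for 2 h at room temperature. Purified anti-EGFRvIII antibody bound 2 h at 37° C, then HRP-labeled secondary 2 h at 37° C. TMB developed 30 min, stopped with 1.0N HCl, A450 nm read.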

[2] = target: T1, human EGFRvIII-hFc protein; assay: ELISA, coated EGFRvIII-hFc, antibody 1 nM
Outline: as §1

[3] = target: T2, human EGFRvIII protein on the cell surface (human, UniProt P00533 25-1210); assay: FACS on U87MG-hEGFRvIII cells
T2 construct: whole, on cells; the cell line is named under assay; also called hEGFRvIII; U87MG-hEGFRvIII

[4] = target: T3, human wild-type EGFR protein on the cell surface (human, UniProt P00533 25-1210); assay: FACS on A431 cells; A431 cells (large amount of wild-type EGFR on the surface)
T3 construct: whole, on cells; Endogenous on A431, HEB, U87MG cells and normal human primary hepatocytes; transfected on CHOk1-EGFR cells; The cell is named under assay; also called A431; HEB
Protocol: The cells are washed twice with the HBSS buffer and are counted, and then the cells are diluted with the HBSS buffer to 2×10⁶ cells/ml, added with 1% goat serum blocking solution, with the percentage being the mass percentage, and incubated on ice for 30 minutes, and then centrifugally washed twice with the HBSS buffer. The collected cells are suspended to 2×10⁶ cells/mL with an FACS buffer (HBSS+1% BSA, with the percentage being the mass percentage), added to a 96-well FACS reaction plate at 100 μL/well, then added with 100 μL/well of the purified EGFRvIII antibody (samples to be tested) obtained in example 2, and incubated on ice for 2 hours. The plate is centrifugally washed twice with the FACS buffer, added with 100 μL/well of a fluorescence (Alexa 488) labeled secondary antibody (purchased from Invitrogen), and then incubated on ice for 1 hour. The plate is centrifugally washed 3 times with the FACS buffer, added with 100 μL/well of a fixing solution [4% (v/v) paraformaldehyde] for suspending the cells, and centrifugally washed twice with the FACS buffer after 10 minutes. The cells are suspended in 100 μL of the FACS buffer, and the results are detected and analyzed by FACS (FACS Calibur, purchased from BD). Data analysis is performed by using the software (CellQuest) to obtain the mean fluorescence intensity (MFI) of the cells. Data is further analyzed by using the software (GraphPad Prism5) to perform data fitting and calculate EC50. […] A431 cells (human epidermal cell cancer cell lines) have a large amount of wild-type EGFR protein expressed on the surface thereof. […] U87MG cells (human glioma cell lines) have a small amount of wild-type EGFR protein expressed on the surface thereof, while HEB cells (human glioma cell lines) have a high level of wild-type EGFR protein expression on the surface thereof.

[5] = target: T3, human wild-type EGFR protein on the …; assay: FACS on CHOk1-EGFR cells; CHOk1-EGFR cells (recombinant EGFR expression)
Protocol: The cells are washed twice with the HBSS buffer and are counted, and then the cells are diluted with the HBSS buffer to 2×10⁶ cells/ml, added with 1% goat serum blocking solution, with the percentage being the mass percentage, and incubated on ice for 30 minutes, and then centrifugally washed twice with the HBSS buffer. The collected cells are suspended to 2×10⁶ cells/mL with an FACS buffer (HBSS+1% BSA, with the percentage being the mass percentage), added to a 96-well FACS reaction plate at 100 μL/well, then added with 100 μL/well of the purified EGFRvIII antibody (samples to be tested) obtained in example 2, and incubated on ice for 2 hours. The plate is centrifugally washed twice with the FACS buffer, added with 100 μL/well of a fluorescence (Alexa 488) labeled secondary antibody (purchased from Invitrogen), and then incubated on ice for 1 hour. […] The cells are suspended in 100 μL of the FACS buffer, and the results are detected and analyzed by FACS (FACS Calibur, purchased from BD). Data analysis is performed by using the software (CellQuest) to obtain the mean fluorescence intensity (MFI) of the cells. Data is further analyzed by using the software (GraphPad Prism5) to perform data fitting and calculate EC50. […]

[6] = target: T4, human EGFRvIII-hFc protein (human, UniProt P00533 25-645); assay: ELISA, EGFRvIII-hFc coated
T4 construct: extracellular domain; also called immunogen A; hFc-tagged EGFRvIII protein; not shown: human IgG Fc fragment (hFc) of the pCpC vector

OD450 nm [1]	OD450 nm [2]	EC50 [3] [nM]	EC50 [4] [nM]	EC50 [5] [nM]	EC50 [6] [nM]	Maximum OD450 value [6] [OD450]	OD450 nm at 0.0001 nM antibody [6] [OD450]	OD450 nm at 0.001 nM antibody [6] [OD450]	OD450 nm at 0.01 nM antibody [6] [OD450]	OD450 nm at 0.1 nM antibody [6] [OD450]	OD450 nm at 1 nM antibody [6] [OD450]	OD450 nm at 10 nM antibody [6] [OD450]	OD450 nm at 100 nM antibody [6] [OD450]	Binder
0.56	0.09	–	–	–	–	–	–	–	–	–	–	–	–	B1
–	–	6.1	13.4	14.2	0.02	3.03	0.07	0.08	0.15	0.65	2.69	3.41	3.44	B2
